Source: patent US20070258982A1 (Pfizer, published 2007)
Changes are numbered by the printed parent chain. Like-named read-outs stand apart in the source and are kept apart here.

T1: IL-26 (human, UniProt Q9NPH9)
T1 construct: also called human IL-26
T1 sequence (cytokine, looked up): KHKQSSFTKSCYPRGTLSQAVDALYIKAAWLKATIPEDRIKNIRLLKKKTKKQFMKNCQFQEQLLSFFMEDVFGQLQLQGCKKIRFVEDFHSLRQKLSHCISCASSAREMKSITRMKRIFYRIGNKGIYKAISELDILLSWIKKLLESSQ

T2: human IL-22 (human, UniProt Q9GZX6 34-179)
T2 sequence: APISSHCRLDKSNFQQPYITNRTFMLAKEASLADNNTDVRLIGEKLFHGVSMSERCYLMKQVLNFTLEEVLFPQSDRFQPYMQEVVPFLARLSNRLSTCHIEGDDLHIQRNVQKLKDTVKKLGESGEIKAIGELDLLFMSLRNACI

T3: murine IL-22 (murine, UniProt Q9JJY9 34-179)
T3 construct: also called mouse IL-22; mIL-22
T3 sequence: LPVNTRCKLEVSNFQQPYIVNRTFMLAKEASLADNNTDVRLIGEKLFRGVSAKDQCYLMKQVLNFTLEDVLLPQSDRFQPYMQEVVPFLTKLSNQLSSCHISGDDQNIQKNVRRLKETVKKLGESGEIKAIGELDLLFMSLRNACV

T4: rat IL-22 (rat, UniProt G3V6X6 34-178)
T4 sequence: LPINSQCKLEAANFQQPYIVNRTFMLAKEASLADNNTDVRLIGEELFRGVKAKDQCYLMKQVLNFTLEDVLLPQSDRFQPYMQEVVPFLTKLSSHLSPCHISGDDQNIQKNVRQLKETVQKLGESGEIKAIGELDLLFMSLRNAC

B1: 367D04 IgG (non-germlined) (antibody, V domains shown)
VH: EVQLVESGGGVVRPGGSLRLSCAASGFTFDDYGMNWVRQAPGKGLEWVSGVNWNGGTRDYAASVKGRFTISRDNAKNSLYLQMNSLRAEDTALYYCARGWYSGSPWSLGHWGRGTLVTVSS
VL: QAVLTQPSSVSGSPGQSVTISCTGASGDVGAYNFVSWYQQHPGKTPKLIIYDVNKRPSGVSNRFSGSKSGNTASLTISRLQAEDESDYYCSSYTSRYTTEFGGGTKVTVLG
notes: IgG
B2: 368D04 IgG (non-germlined) (antibody, V domains shown)
VH: B1 VH with S104A, P105A, S107N, L108M, H110Y
VL: B1 VL with V18I, R79G, S91A, Y93L, T94V, R96D, Y97F, T98S, T99V, E100V
B3: 375G06 IgG (non-germlined) (antibody, V domains shown)
VH: EVQLVQSGAEVKKPGASVKVSCQASGYTFSDYYIHWVRQTPGQGFEWMGWVNPDTGGTRYAQKFQGWVTMTRDMSNTTAYMELPRLRDDDTAVYYCARDLTGYDYYDRWGQGTLVTVSS
VL: QSVLTQPPSMSVAPGKTATITCGGNNFRNKRVHWYQQRPGQAPVLVIYYDSDRPSGIPERFSGSRSGNTATLTISRVEAGDEADFYCQVWDFLADEAMFGGGTKLTVL
notes: IgG
B4: 097D09 IgG (non-germlined) (antibody, V domains shown)
VH: EVQLVESGGGLVTPGGSLRLSCAASGFTFSDYYMSWVRQAPGRGLEWVSAISGSGGSTYYADSVKGRITISRDNAKNSLYLQMSSLRSEDTAVYYCARGLWVWDPLDYWGRGTLVTVSS
VL: DIQMTQSPSTLSASIGDRVTITCRASEGIYHWLAWYQQKPGKAPKLLIYKASSLASGAPSRFSGSGFGTDFTLTISSLQPDDFATYYCQQYSEFAWTFGGGTKLEIKR
notes: IgG
B5: 376B10 IgG (non-germlined) (antibody, V domains shown)
VH: B3 VH with R85G, Y105Q, D107T, R108A
VL: QSVLTQPPSVSVAPGKTATITCGGNNFRNKRVHWYQQRPGQAPVLVIYYDSDRPSGIPERFSGSRSGNTATLTISRVEAGDEADFYCSTFDPFTDRPLFGGGTKLTVLG
notes: IgG
B6: 355B06 IgG (germlined) (antibody, V domains shown)
VH: QVQLVQSGAEVKKPGASVKVSCKASGYTFTDYYMHWVRQAPGQGLEWVGWINPYTGSAFYAQKFRGRVTMTRDTSISTAYMELSRLRSDDTAVYYCAREPEKFGESSGQLWGRGTLVTVSS
VL: QAVLTQPPSVSGAPGQRVTISCTGSSSNIGAGYGVHWYQQLPGTAPKLLIYGDSNRPSGVPDRFSGSKSGTSASLAITGLQAEDEADYYCQSYDSGLSGYVFGGGTQLTVLG
B7: 354A08 IgG (germlined) (antibody, V domains shown)
VH: B6 VH with S57G, K102R, E105D, S107T, L110V
VL: B6 VL with D53N, Q91Y, S92H, Y93W, S95K, G96E, L97Q
notes: isotype of this preparation not restated
B8: 356A11 IgG (germlined; Tables 6 and 9) (antibody, V domains shown)
VH: B6 VH with D31N, G104D, E105S, S106D, S107D, G108S, Q109D, L110V
VL: B6 VL with S95N, G96S
B9: 356A11 human monoclonal anti-IL-22 antibody (Examples 10, 11, 14, 15) (antibody, V domains shown)
VH: B6 VH with D31N, G104D, E105S, S106D, S107D, G108S, Q109D, L110V
VL: B6 VL with S95N, G96S
B10: 355E04 IgG (germlined) (antibody, V domains shown)
VH: B6 VH with D31H, S57G, R65Q, G104D, E105S, S106P, S107N, G108A, Q109E, L110I
VL: B6 VL with D53N, G96S
B11: 062G05 IgG (non-germlined) (antibody, V domains shown)
VH: QVQLVESGAEVKKPGASVKVSCKASGYTFTSYGISWVRQAPGQGLEWMGWISAYTGNTNYAQKFQGRVTMTTDTSTSTAYMELRSLRSDDTAVYYCARDRGYYDAFDIWGQGTLVTVSS
VL: B4 VL with Y91M, S92G, F94W, A95K, W96A, T97A
notes: IgG
B12: 166G05 IgG (germlined) (antibody, V domains shown)
VH: QVQLVQSGAEVKKPGASVKVSCKASGYTFSDYYIHWVRQAPGQGLEWMGWVNPDTGGTRYAQKFQGRVTMTRDMSISTAYMELSRLRSDDTAVYYCARDLTGFDPFDIWGQGTLVTVSS
VL: SSVLTQPPSVSVAPGKTARITCGGNNFRNKRVHWYQQKPGQAPVLVIYYDSDRPSGIPERFSGSRSGNTATLTISRVEAGDEADYYCQVWDFLTDSGSFGGGTKLTVLG

How the values were obtained:
IL-26 = target: T1, IL-26; test: ELISA: plate coated with 1 µg/ml antigen, IgG added at 1 µg/ml, HRP goat anti-human IgG, A450
Procedure: (§1) Cross species reactivity of germlined and non-germlined optimized antibodies were determined as follows: ELISA plates (Costar, Cat. #3590) were coated overnight with 1 μg/ml of rat, mouse, or human IL-22 or human IL-26 in PBS buffer. Plates were washed with PBST buffer (0.05% Tween20 in PBS) 3 times, then blocked with 1% BSA (Sigma A8918)/PBST for 1 hr at RT. Antibodies were added at 1 μg/ml, incubated 1 hr at 25° C. […] The plates were incubated for 1 hour at 25° C., then washed with PBST, and developed with TMB (KPL, Cat. #50-76-04). Reaction was stopped with 0.18 M H₂SO₄ Plates were read at OD 450 nm.

human IL-22 [1] = target: T2, human IL-22; test: cell-based or functional assay
BSA [2] = target: T5, BSA (bovine, UniProt P02769); test: ELISA: plate coated with antigen, IgG added at 1 µg/ml, HRP goat anti-human IgG, A450
T5 construct: also called bovine serum albumin
T5 sequence (P02769 25-607 limits assumed): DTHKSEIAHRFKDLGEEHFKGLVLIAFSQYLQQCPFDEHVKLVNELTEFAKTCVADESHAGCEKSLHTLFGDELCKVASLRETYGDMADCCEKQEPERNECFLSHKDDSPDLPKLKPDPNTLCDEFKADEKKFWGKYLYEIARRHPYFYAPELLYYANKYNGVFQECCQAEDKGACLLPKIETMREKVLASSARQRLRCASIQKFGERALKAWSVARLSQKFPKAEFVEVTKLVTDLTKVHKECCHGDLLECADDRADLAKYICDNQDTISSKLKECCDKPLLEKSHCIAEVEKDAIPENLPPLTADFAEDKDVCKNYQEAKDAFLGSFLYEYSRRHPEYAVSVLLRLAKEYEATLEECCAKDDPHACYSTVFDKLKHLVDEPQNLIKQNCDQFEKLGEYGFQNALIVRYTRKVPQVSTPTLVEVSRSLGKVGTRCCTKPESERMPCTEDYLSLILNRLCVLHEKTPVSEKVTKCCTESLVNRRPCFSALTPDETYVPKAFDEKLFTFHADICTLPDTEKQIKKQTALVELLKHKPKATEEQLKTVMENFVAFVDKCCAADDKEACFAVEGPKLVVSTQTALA

murine IL-22 [3] = target: T3, murine IL-22; test: ELISA: plate coated with 1 µg/ml antigen, IgG added at 1 µg/ml, HRP goat anti-human IgG, A450
Procedure: as §1

BSA [4] = target: T5, BSA; test: ELISA: plate coated with antigen, IgG added at 1 µg/ml, HRP goat anti-human IgG, A450; remark: listed apart in the source
monkey IL-22 [5] = target: monkey IL-22 (monkey); test: cell-based or functional assay
human IL-22 [6] = target: T2, human IL-22; test: cell-based or functional assay; remark: listed apart in the source
rat IL-22 [7] = target: T4, rat IL-22; test: cell-based or functional assay
murine IL-22 [8] = target: T3, murine IL-22; test: cell-based or functional assay
monkey IL-22 [9] = target: monkey IL-22 (monkey); test: cell-based or functional assay; remark: listed apart in the source
human IL-22 [10] = target: T2, human IL-22; test: cell-based or functional assay; remark: listed apart in the source
rat IL-22 [11] = target: T4, rat IL-22; test: cell-based or functional assay; remark: listed apart in the source
murine IL-22 [12] = target: T3, murine IL-22; test: cell-based or functional assay; remark: listed apart in the source

Row | Binder | binding result (IL-26) | IC50 of IgG (pM) in BaF3-IL-22 proliferation assay (human IL-22 [1]) | binding result (BSA [2]) | binding result (BSA [4]) | further results
1 | B1 | no binding (tested: 1 µg/ml) | 126 pM | no binding (tested: 1 µg/ml) | – | –
2 | B2 | no binding (tested: 1 µg/ml) | 127 pM | no binding (tested: 1 µg/ml) | – | –
3 | B3 | no binding (tested: 1 µg/ml) | 100 pM | no binding (tested: 1 µg/ml) | – | –
4 | B4 | no binding (tested: 1 µg/ml) | 197 pM | no binding (tested: 1 µg/ml) | – | binding result (murine IL-22 [3]): no binding (tested: 1 µg/ml)
5 | B5 | no binding (tested: 1 µg/ml) | 119 pM | no binding (tested: 1 µg/ml) | – | –
6 | B6 | no binding (tested: 1 µg/ml) | 92 pM | – | no binding (tested: 1 µg/ml) | –
7 | B7 | no binding (tested: 1 µg/ml) | 79 pM | – | no binding (tested: 1 µg/ml) | –
8 | B8 | no binding (tested: 1 µg/ml) | 53 pM | – | no binding (tested: 1 µg/ml) | –
9 | B9 | – | – | – | – | IC50 (pM) in GROa cell based assay (HT29 cells) (monkey IL-22 [5]): 89.6 pM; IC50 (pM) in GROa cell based assay (HT29 cells) (human IL-22 [6]): 124 pM; IC50 (pM) in GROa cell based assay (HT29 cells) (rat IL-22 [7]): 211 pM; IC50 (pM) in GROa cell based assay (HT29 cells) (murine IL-22 [8]): 144 pM; IC50 (pM) in BaF3 cell based assay (monkey IL-22 [9]): 2.58 pM; IC50 (pM) in BaF3 cell based assay (human IL-22 [10]): 3.57 pM; IC50 (pM) in BaF3 cell based assay (rat IL-22 [11]): 10.7 pM; IC50 (pM) in BaF3 cell based assay (murine IL-22 [12]): 2.53 pM
10 | B10 | no binding (tested: 1 µg/ml) | 100 pM | – | no binding (tested: 1 µg/ml) | –
11 | B11 | – | 112 pM | no binding (tested: 1 µg/ml) | – | –
12 | B12 | no binding (tested: 1 µg/ml) | – | – | no binding (tested: 1 µg/ml) | –
